Experimental data as given in the supplement of paper PMC10567573.

B1: ANKRD9 (parent)
chain: LLEDMRASEAFHWDERGRAAAYSP
B2: TRAF3IP2 (parent)
chain: APWNYHYHCPGSPDHQVPYGHDYP

Variants of: B1
Test: protein stability index of a GFP-peptide fusion (GPS, HEK-293T) (PSI 1-6); higher = more stable
Details: c terminus: a fixed tail appended
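Note: lentivirally expressed fusions sorted by FACS into six bins by GFP to DsRed ratio, PSI derived from sequencing read proportions per bin multiplied by bin number.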

Protein stability index of substitutions, site by site:
A21: M 1.96; F 2.55; P 1.86; Y 2.08; W 1.42; H 1.45; C 2.15; E 2.53; S 1.62; Q 2.29; I 1.71; D 2.06; G 1.33; R 2.23; L 1.87; K 1.95; V 3.25; N 2.15; T 1.43
R18: T 1.7; K 1.8; N 2.14; P 1.56; M 2.34; C 1.69; L 2.24; G 2.12; V 2.36; A 2.65; I 1.65; E 1.96; Y 1.71; F 2.22; H 2.66; S 1.88; D 1.91; Q 1
A19: P 2.31; R 1.84; W 1.53; T 1.88; N 1.84; Y 1.28; F 1.54; D 1.36; E 1.55; H 1.69; C 2.26; I 1.03; K 2.27; S 2.23; V 1.99; L 2.39; Q 1.22
P24: L 1.38; A 2.1; Q 1.58; K 1.53; D 1.75; E 2.48; N 2.41; F 1.23; S 3.62; H 2.19; Y 1.6; R 1.75; T 2.34; V 1.68
A20: M 2.55; S 1.62; C 1.46; V 1.34; F 1.81; T 2.36; D 2.64; Q 1.48; I 1.97; L 2.27; H 2.13; R 1.1; Y 1.85; E 1.92; P 1.92; K 1.62
S23: V 2.08; H 1.98; G 1.68; I 2.61; Y 1.74; D 2.09; P 1.4; N 1.16; E 1.85; R 1.91; T 2.08; Q 3.31; K 2.05; A 2.09; F 1.35; L 2.1; M 2.68
Y22: T 4.08; L 1.81; A 3.01; E 2.62; H 1.76; D 2.2; Q 2.39; S 2; C 1.8; G 1.63; R 1.81; K 2.18; M 1.64; I 2.17
G17: C 2.39; E 2.31; V 3.02; W 1.1; K 1.78; H 1.44; T 1.42; N 2.52; R 2.06; F 2.59
R16: Q 1.9; N 1.93; G 1.88; I 3.12; T 1.74; V 1.79; K 1.32; M 1.32; W 1.58; L 2.41; H 2.44; S 1.44

Variants of: B2
Test: as above
Details: c terminus: a fixed tail appended

Protein stability index, by site and new letter:
Y7: L 2.6; K 2.91; D 3.79; N 3.4; R 3.09; M 1.5; C 2.49; E 3.6; I 2.52; Q 3.83; F 2.4; P 3.29; S 2.82; W 1.99; G 3.43; T 2.85; H 3.42; V 2.67; A 3.15
N4: H 1.97; Y 2.54; T 2.63; A 1.7; W 1.51; I 2.43; C 2.17; F 2.63; P 2.59; G 2; Q 3.04; K 2.24; V 2.12; D 3.54; E 3.39; M 2.78; S 3.36; L 2.26
P10: M 2.02; G 1.71; Y 2.13; K 2.4; C 1.5; R 1.29; Q 2.04; N 2.08; D 2.31; I 1.66; H 1.96; L 1.54; E 2.27; W 1.46; F 2.07; S 2.08; A 1.69; V 2.09; T 1.86
Y5: G 3.96; A 3.65; V 3.21; T 3.52; L 3.3; I 3.64; Q 2.94; R 3.04; N 3.43; P 3.84; E 4.08; D 3.93; K 3.14; M 3; F 2.19; H 2.63; C 3.43; S 3.47; W 2.91
C9: D 2.59; N 2.17; V 2.7; M 2.73; A 2.08; K 2.66; Q 2.16; T 1.69; L 1.98; R 2.52; F 1.93; I 1.85; E 2.55; P 1.9; W 1.78; Y 2.16; G 2.05; H 2.28; S 2.52
H6: R 2.9; T 2.94; Y 2.02; A 2.73; G 2.96; F 2.14; V 1.94; M 2.54; C 3.34; S 3.2; W 2.59; L 2.39; E 4.43; I 2.42; N 3.15; K 2.97; P 3.38; Q 2.97; D 3.57
H8: A 2.06; F 2.22; L 2.2; Y 1.84; Q 2.82; G 2.12; N 2.1; D 2.9; K 1.73; T 2.41; R 1.66; M 1.69; V 1.95; E 2.25; S 2.44; P 1.99; I 2.08; C 2.42; W 2.26
G11: H 2.11; F 2.73; I 1.63; E 2.06; D 2.21; L 2.31; K 1.92; C 2.02; M 3.15; A 2.55
P2: H 2.26; I 1.58; T 2.21; Y 1.51; D 3.38; N 3.37; A 2.66; R 2.28; K 2.04; G 1.59; M 2.07; C 2.15; V 2.45; F 1.95; W 1.27; S 2.1; L 1.76; E 3.07; Q 2.35
A1: I 1.71; S 2.18; N 2.32; C 2.72; V 1.71; L 2.08; Y 2.37; M 2.5; E 2.91; T 1.87; R 2.1; K 2.81; H 3.12; G 3.39; D 3.33; F 2.12; Q 1.53; P 2.71
W3: C 4.01; K 3.05; E 4.48; A 3.6; R 3.72; M 3.08; N 4.12; D 4.04; H 3.51; T 4.03; Q 3.54; V 2.52; S 3.95; G 3.43; L 3.03; F 2.22; Y 3.04; I 3.39
